The values that follow come from article PMC3124419, “Elucidating the domain architecture and functions of non-core RAG1: The capacity of a non-core zinc-binding domain to function in nuclear import and nucleic acid binding” (BMC Biochemistry, 2011).

Residue numbers refer to the chain shown, from its start.

One data set has as its target T1, MBP-bZDD (murine, UniProt P15919 218-380).
T1 sequence: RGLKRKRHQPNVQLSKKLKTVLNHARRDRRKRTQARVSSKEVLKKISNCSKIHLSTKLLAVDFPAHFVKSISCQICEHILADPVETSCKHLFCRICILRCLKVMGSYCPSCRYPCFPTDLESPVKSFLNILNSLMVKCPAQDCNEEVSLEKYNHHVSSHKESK
The data set is described as follows: EMSA; 5 mM Mg2+; EMSA: 10 mM Tris pH 8.0, 5 mM MgCl2, 2 mM DTT, 6% glycerol, 100 mM NaCl, 25 C, 1 nM 32P-DNA; 3.5/8% discontinuous nondenaturing gel. To be noted: protein: recombinant; tags: N-terminal MBP; chain copies: 2; blunt. Background: A gel shift assay detects complexes by their altered migration in electrophoresis.

Data set [1] addresses T2, MBP-CND (RAG1 central non-core domain) (murine, UniProt P15919 87-217).
T2 sequence: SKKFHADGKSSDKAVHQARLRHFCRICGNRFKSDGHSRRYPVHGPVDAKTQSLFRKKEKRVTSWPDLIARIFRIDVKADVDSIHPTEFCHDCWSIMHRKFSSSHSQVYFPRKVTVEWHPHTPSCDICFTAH
The data set is described as follows: EMSA; 5 mM Mg2+; range covers EMSA and anisotropy; EMSA: 10 mM Tris pH 8.0, 5 mM MgCl2, 2 mM DTT, 6% glycerol, 100 mM NaCl, 25 C, 1 nM 32P-DNA; 3.5/8% discontinuous nondenaturing gel. To be noted: protein: recombinant; tags: N-terminal MBP; blunt.

The target of data set [2] is T2, MBP-CND (RAG1 central non-core domain). In words: fluorescence anisotropy; range covers EMSA and anisotropy; EMSA: 10 mM Tris pH 8.0, 5 mM MgCl2, 2 mM DTT, 6% glycerol, 100 mM NaCl, 25 C, 1 nM 32P-DNA; 3.5/8% discontinuous nondenaturing gel. To be noted: protein: recombinant; tags: N-terminal MBP; blunt. Background: In fluorescence polarisation assays a small probe gives low polarisation when free and higher when bound to something large.

Data set [3] shares this target. The data set is described as follows: competition; 1.5 uM MBP-CND, 1 nM labeled WT 12-RSS; EMSA: 10 mM Tris pH 8.0, 5 mM MgCl2, 2 mM DTT, 6% glycerol, 100 mM NaCl, 25 C, 1 nM 32P-DNA; 3.5/8% discontinuous nondenaturing gel. The settings on record: protein: recombinant; tags: N-terminal MBP; blunt.
Data set [4] concerns the molecule itself. The data set is described as follows: SEC-MALS; MALLS-SEC of MBP fusion proteins, 20 mL Superdex 200, starting concentration 3-10 μM, GFB buffer (20 mM Tris pH 8.0, 0.2 M NaCl, 50 μM ZnCl2, 5 mM βME). Background: SEC sorts molecules by how far they enter the pores of the column.
Data set [5] has as its target T2, MBP-CND (RAG1 central non-core domain). The data set is described as follows: EMSA; 5 mM Mg2+; EMSA: 10 mM Tris pH 8.0, 5 mM MgCl2, 2 mM DTT, 6% glycerol, 100 mM NaCl, 25 C, 1 nM 32P-DNA; 3.5/8% discontinuous nondenaturing gel. The settings on record: protein: recombinant; tags: N-terminal MBP; label: 5' 32P; hairpin, fully complementary.
In another data set the target is T3, MBP-CND+bZDD (murine, UniProt P15919 87-380).
T3 sequence: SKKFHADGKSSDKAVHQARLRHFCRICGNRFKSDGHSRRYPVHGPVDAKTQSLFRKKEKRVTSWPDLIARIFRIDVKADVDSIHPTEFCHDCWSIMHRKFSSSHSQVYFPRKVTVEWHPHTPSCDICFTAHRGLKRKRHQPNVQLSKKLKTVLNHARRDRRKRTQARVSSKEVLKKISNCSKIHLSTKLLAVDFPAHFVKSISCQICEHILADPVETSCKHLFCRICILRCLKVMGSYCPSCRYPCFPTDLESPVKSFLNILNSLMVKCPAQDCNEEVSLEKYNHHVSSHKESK
Described as above. To be noted: protein: recombinant; tags: N-terminal MBP; chain copies: 2; label: 5' 32P; hairpin, fully complementary.

B1: WT 12-RSS (dsDNA)
DNA 1: GATATGGCTCGTCTTACACAGTGATATAGACCTTAACAAAAACCTCCAATCGAGCGGAG
DNA 2: CTCCGCTCGATTGGAGGTTTTTGTTAAGGTCTATATCACTGTGTAAGACGAGCCATATC
The Kd is the free concentration of one partner at which half of the binding sites on the other are occupied at equilibrium, for simple one-to-one binding. Consider B1, for which the results for the Kd (with MBP-bZDD; in data set [1]) were approximately 1730 nM and 1550 nM, respectively.

B2: WT 12-RSS, Oregon Green (dsDNA)
DNA 1: B1 DNA 1
DNA 2: B1 DNA 2
For B2, the Kd in data set [2] came to 1550 nM.

B3: mutant heptamer (MH) 12-RSS (dsDNA)
DNA 1: B1 DNA 1 with C17G, C19G, G21A, T22G, G23C
DNA 2: B1 DNA 2 with C37G, A38C, C39T, G41C, G43C
For B3, in data set [3], the binding result is “binds”.

B4: MBP-bZDD (domain or fragment, murine, UniProt P15919 218-380, looked up)
chain: T1 sequence
notes: RAG1, murine, residues 218-380 (basic region plus zinc dimerization domain, ZDD 265-380); Four zinc ions per monomer; Predicted dimeric mass 123,634 Da; also called MBP-RAG1(218-380); basic-zinc dimerization domain fused to MBP; source: E. coli BL21, purified (amylose resin, SEC); not shown: MBP, N-terminal, kept
One may read the stoichiometry N as the number of molecules, sites or subunits per partner or assembly. For the molecule B4, the “stoichiometry N” value in data set [4] amounted to 2.
On to GATATGGCTCGTCTTATAAGACGAGCCATATC (structured_DNA) [32 nt hairpin coding flank], for which the binding result (in data set [5]; in the data set with MBP-CND+bZDD) was “binds” each time.

B5: mutant nonamer (MN) 12-RSS (dsDNA)
DNA 1: GATATGGCTCGTCTTACACAGTGATATAGACCTTAAGGCTCTGATCCAATCGAGCGGAG
DNA 2: CTCCGCTCGATTGGATCAGAGCCTTAAGGTCTATATCACTGTGTAAGACGAGCCATATC
As for B5, in data set [3], the binding result is “binds”.
